Assay results reported in patent US8871276B2, “Beta-casein assemblies for mucosal delivery of therapeutic bioactive agents” (Technion Research and Development Foundation Ltd., priority 2008, dated 2014).

Legend:
Format in all cases: physicochemical
[1] = Isothermal titration calorimetry (ITC) of β-casein micellization
Method: […] The reaction cell (V=1.43 mL) was filled with degassed solvent (lactic acid at pH 2.6, or phosphate buffer at pH 7.0). The injector-stirrer syringe (289 μL) was loaded with a β-casein micellar solution (20 mg/mL). The micellar solution was injected into the reaction cell in 28 steps of 10 μL aliquots each, and the heat flow was measured. During the titration, the stirring speed was 310 rpm. The duration of each injection was 20 s, and the equilibration time between consecutive injections was 3 min. Such an interval was sufficient to equilibrate the reaction cell after every injection. Each experiment was performed at least three times. Calorimetric data analysis was carried out using Origin 5.0 software (MicroCal).
β-casein micellar solution was titrated into lactic acid buffer (pH 2.6) placed in the ITC cell, and the heat flow was measured as a function of time (FIG. 6A). Three factors contribute to the exothermic enthalpy changes observed at the initial injections: micelle dilution, demicellization, and dilution of individual β-casein molecules. The enthalpy changes decrease in magnitude as more protein is added and the concentration in the ITC cell increases. Eventually, the concentration in the cell exceeds the CMC and only micelle dilution contributes to the heat flow. In FIG. 6B the heat of the reaction, obtained by integrating the peaks of the individual injections given in FIG. 6A, is plotted against the β-casein concentration in the cell. A slow increase in the reaction enthalpy was observed, resulting in micellixation relative cooperativity (MR) of 0.14 mM (FIG. 6b), which is more than twice than the value found at pH 7.0 and IS of 0.1. FIG. 6B also presents the heat of demicellization, ΔHdemic, which equals the enthalpy difference between the two asymptotes of the sigmoid fit of the experimental data (obtained by using the Origin software). It is shown that at 24° C. ΔHdemic is ≦17.9 kJ/mol, relatively small compared with the −40.53 kJ/mol found at pH 7.0 and IS of 0.1. […] This value is approximately twice the CMC found at pH 7 and ionic strength 0.1. The small ΔHdemic, the high CMC, and the large MR indicate that the driving forces for micellization under acidic conditions are reduced compared with those at physiological pH and high IS.

[2] = Analytical ultracentrifugation (sedimentation equilibrium)
Method: Sedimentation equilibrium experiments were performed at 24° C. using a Beckman Optima XL-A (Palo Alto, Calif.) analytical centrifuge at 6,000, 10,000, and 12,000 rpm for the low-pH solutions and at 4,000, 6,000, and 8,000 rpm for the pH 7.0 solutions. Data were collected at 280 nm. The β-casein solutions were studied at concentrations ranging from 0.2 to 10.0 mg/mL at pH 2.6 and from 0.2 to 2 mg/mL at pH 7.0 and an ionic strength of 0.1. […] The average apparent molecular weight of the micelles at the various protein concentrations was calculated following methods well known in the art (The partial specific volume νj of the solute was taken to be […], and a solution density F of 1.0044 g/cm^3 was measured). At β-casein concentrations of 2 mg/mL and above under low pH conditions, the plot of the natural logarithm of the measured absorbance versus the square of the radius from the axis of rotation was not linear. To estimate Nagg, the limiting slope toward the outer edge of the sample cell was used to provide d ln(c)/dr^2. The molecular weight calculated using this slope was divided by the monomer molecular weight calculated from the β-casein amino acid sequence (24,000).
To determine the aggregation number of the micelles at pH 2.6, analytical ultracentrifugation experiments were conducted at various protein concentrations and at […] and IS of 0.002. Sample data are plotted in FIG. 7, showing data with the protein concentration at 5 mg/ml, and ionic strength (IS) of 0.002. […] The aggregation numbers calculated from the slope of this line confirmed that the protein is monomeric at these concentrations. At concentrations higher than the CMC, two regions could be defined, indicating the presence of two protein populations: monomers at relatively short radii (i.e., in FIG. 7 at r<6.5 or r2<43) and assemblies at large radii. The micelles at pH 2.6 are characterized by a small aggregation number of 3 around the CMC and 6 at higher concentrations. In contrast, Nagg of 20 was measured at pH 7.0 and ionic strength 0.1. […]

[3] = Dynamic light scattering (DLS) size distribution
Method: DLS and Zeta potential measurements performed on a combined DLS and zeta potential analyzer (Nicomp 380 ZLS zeta potential/particle sizer, USA), at 25° C. were performed for size distribution and electrostatics characterization. For DLS measurements the scattered light intensity was detected with an Avalanche Photo Diode (APD) detector, used at a fixed angle of 90°. Laser wavelength was 658 nm, operating at 90 mW. Mono- bi- or tri-modal distributions were calculated from the scattered light intensity fluctuations, by Nicomp™ cumulants analysis of the intensity autocorrelation function. Zeta potential measurements were performed in triplicate.

[4] = Storage stability / appearance of suspensions and lyophilized powder; conditions: stored at 4 °C, neutral pH
Method: Bovine β-casein (>90%; Sigma-Aldrich) was dissolved in pH 7.0 hepes buffer containing 200 mM hepes (MP Biomedicals), 10 mM MgCl2 (Sigma-Aldrich), 20 mM EGTA (Sigma-Aldrich) and 10 mM NaCl (Loba Chemie), and was placed over-night at 4° C. under stirring. The protein solutions were prepared at concentrations ranging from 0.5 to 2 wt % (0.21 to 0.83 mM respectively), and were filtered through a porous membrane of 0.45 μm to avoid large protein aggregates. […] Stirring continued for 30 minutes in room temperature. […] The specimens remained stable i.e., no precipitation was observed, for at least 3 weeks at 4° C.
Protein and protein-drug solutions were lyophilized by freezing in liquid nitrogen followed by drying in a Christ Alpha 1-4 lyophilizer for 24 hours. The specimens were stored in 4° C. until re-suspension in hepes buffer, back to the original concentration (0.5 wt % or 2 wt %), or to a higher concentration of 5 wt %. Re-suspension was performed by weighing the powder, adding a measured amount of buffer and stirring for 30 minutes in room temperature.
The lifetime of the drug-loaded complexes increased to at least 3 weeks at the same temperature. Stability of the assemblies remains when they were transferred to room temperatures. […] This process provided increased stability of the loaded micelles in a dry powder form, for at least 6 months.

[5] = 0.5% β-casein, empty or loaded 1:8 celecoxib, pH ~7

B1: β-casein: bovine β-casein self-assembled into unloaded micelles in acidic or neutral buffer (protein, UniProt P02666 16-224, looked up)
Beta-casein: RELEELNVPGEIVESLSSSEESITRINKKIEKFQSEEQQQTEDELQDKIHPFAQTQSLVYPFPGPIPNSLPQNIPPLTQTPVVVPPFLQPEVMGVSKVKEAMAPKHKEMPFPKYPVEPFTESQSLTLTDVENLHLPLPLLQSWMHQPHQPLPPTVMFPPQSVLSLSQSKVLPVPQKAVPYPQRDMPIQAFLLYQEPVLGPVRGPFPIIV
modifications: self-assembled micelles
notes: bovine β-casein self-assembled into unloaded micelles in acidic or neutral buffer
Micellization relative cooperativity (MR) ([1]; lactic acid pH 2.6, 24 °C): 0.14 mM | Heat of demicellization ΔHdemic ([1]; pH 2.6, 24 °C): ≤ 4.28 kcal/mol | CMC ([1]; pH 2.6, 24 °C, by ITC): 1.89 mg/mL | CMC ([1]; pH 2.6, 25 °C, by ITC): 0.19 wt % | CMC ([1]; pH 2.6, by ITC): 0.079 mM | Heat of demicellization ΔHdemic ([1]; pH 7.0, IS 0.1): -9.687 kcal/mol | Aggregation number (ultracentrifugation) ([2]; pH 2.6, around the CMC): 3 | Aggregation number (ultracentrifugation) ([2]; pH 2.6, concentrations higher than the CMC, 24-25 °C): 6 | Nagg (ultracentrifugation) ([2]; pH 7.0, ionic strength 0.1): 20 | Micelle diameter (DLS), after lyophilization and re-suspension [3, 5]: 21 nm | Micelle diameter (DLS), before drying [3, 5]: 19 nm | Micelle diameter (DLS) ([3]; 2 wt % β-casein, empty or loaded 1:1 budesonide, hepes buffer pH 7.0): 19.6±3.4 nm | Lifetime of empty micelles on storage [4]: degraded within a few days
